The record followed here is paper doi:10.1101/2020.05.29.123786.

Values joined by “and” are separate entries in the source; they are usually repeats but may differ in a detail not shown here. Equal entries are not always repeated.

Assay in all cases: cryo-EM structure
For assay [1], the target named is TsaP from Pseudomonas aeruginosa (Pseudomonas aeruginosa).
Assay [2] concerns the target PilQ from Pseudomonas aeruginosa (type IVa pilus secretin) (Pseudomonas aeruginosa) (UniProt P34750).
The target of assay [3] is T1, PilQ from Pseudomonas aeruginosa (type IVa pilus secretin) (Pseudomonas aeruginosa), P34750.
T1 chain: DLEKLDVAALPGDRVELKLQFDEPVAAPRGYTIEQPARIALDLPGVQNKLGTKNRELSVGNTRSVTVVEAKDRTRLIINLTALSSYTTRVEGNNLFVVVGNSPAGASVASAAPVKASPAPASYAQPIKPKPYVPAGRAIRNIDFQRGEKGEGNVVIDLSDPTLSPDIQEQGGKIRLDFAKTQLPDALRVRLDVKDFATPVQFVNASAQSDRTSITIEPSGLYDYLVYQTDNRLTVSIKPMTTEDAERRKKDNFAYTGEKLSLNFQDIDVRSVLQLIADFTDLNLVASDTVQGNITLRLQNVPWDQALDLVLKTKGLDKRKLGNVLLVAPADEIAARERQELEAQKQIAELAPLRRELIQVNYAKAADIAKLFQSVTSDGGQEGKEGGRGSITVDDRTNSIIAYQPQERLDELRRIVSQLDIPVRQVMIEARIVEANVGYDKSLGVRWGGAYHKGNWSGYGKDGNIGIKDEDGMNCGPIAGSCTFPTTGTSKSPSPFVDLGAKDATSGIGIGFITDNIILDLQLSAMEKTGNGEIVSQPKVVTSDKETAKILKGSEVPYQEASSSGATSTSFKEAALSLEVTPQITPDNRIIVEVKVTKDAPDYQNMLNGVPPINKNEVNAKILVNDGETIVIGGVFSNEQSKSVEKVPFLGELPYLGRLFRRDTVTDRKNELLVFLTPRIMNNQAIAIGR
The settings on record: remark: other sources report otherwise.

In assay [1], “TsaP from Pseudomonas aeruginosa (natural protein)” showed a stoichiometry N of 7. In assay [2], this molecule yielded a stoichiometry N (TsaP per PilQ) of 0.5.

B1: PilQ from Pseudomonas aeruginosa (type IVa pilus secretin), P34750 25-714 (natural protein)
chain: T1 chain
On to B1, for which the stoichiometry N in assay [3] is 14 and 15.
